Measurements as given in US20250042994A1 (HAINAN SIMCERE ZAIMING PHARMACEUTICAL, published 2025).
Each block holds one binder with its values, some of them ahead of it.

Key:
[1] = molecular target: T1, human CD19 exon1-3-His tag protein (human, UniProt P15391 20-186, limits assumed); test: ELISA on coated human CD19 exon 1-3-His
T1 construct: membrane-distal part of the extracellular region, made in HEK293E cells; not shown: His tag
T1 sequence (looked up): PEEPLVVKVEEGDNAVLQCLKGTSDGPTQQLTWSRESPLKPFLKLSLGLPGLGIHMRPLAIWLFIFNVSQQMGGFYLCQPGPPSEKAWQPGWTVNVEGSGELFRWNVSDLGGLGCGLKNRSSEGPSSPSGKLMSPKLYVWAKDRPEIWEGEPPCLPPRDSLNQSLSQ

Human CD19-his protein [2] = molecular target: T2, Human CD19-his protein (human, UniProt P15391 20-291); test: SPR Biacore, Ab captured on Protein A, CD19-His analyte
T2 construct: bought protein; also called recombinant human CD19-His; CD19 full-length protein; not shown: His tag
T2 sequence (looked up): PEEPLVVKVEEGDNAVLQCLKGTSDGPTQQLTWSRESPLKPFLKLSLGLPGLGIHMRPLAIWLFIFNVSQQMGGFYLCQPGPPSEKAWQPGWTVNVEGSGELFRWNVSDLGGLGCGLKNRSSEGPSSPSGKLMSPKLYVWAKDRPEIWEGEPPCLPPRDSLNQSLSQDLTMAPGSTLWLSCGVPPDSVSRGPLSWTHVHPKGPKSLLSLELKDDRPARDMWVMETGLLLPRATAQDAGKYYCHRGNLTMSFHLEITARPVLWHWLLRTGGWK
Method in brief: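 Apparent KD came from a Langmuir 1:1 fit of double-referenced sensorgrams. Recombinant human CD19-His analyte (top 200 nM, 1:1 serial dilution, 5 concentrations) flowed over Protein A-captured antibody for 240 s at 30 μl/min, then buffer for up to 600 s. Running buffer HBS-EP+ at 25 °C; regeneration with 10 mM glycine pH 1.5.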

murine CD19 protein = molecular target: T3, murine CD19 protein (murine, UniProt P25918 17-287, limits assumed); test: ELISA, coated murine CD19
T3 construct: bought protein; also called commercial murine CD19
T3 sequence (looked up): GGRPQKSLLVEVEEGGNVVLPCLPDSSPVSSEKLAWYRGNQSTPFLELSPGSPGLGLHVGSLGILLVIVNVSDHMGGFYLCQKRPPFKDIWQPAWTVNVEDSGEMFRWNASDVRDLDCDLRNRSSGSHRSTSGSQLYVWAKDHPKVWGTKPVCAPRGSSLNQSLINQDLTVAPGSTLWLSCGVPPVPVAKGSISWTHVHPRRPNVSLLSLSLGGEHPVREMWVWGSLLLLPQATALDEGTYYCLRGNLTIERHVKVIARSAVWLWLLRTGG
Procedure: (§1) Human CD19-his protein (purchased from ACROBiosystems, catalog number: CD9-H52H2) was diluted with PBS to a final concentration of 4 μg/mL, and then added to a 96-well ELISA plate at 100 μl/well. The plate was sealed with a plastic film and incubated overnight at 4° C., the plate was washed 2 times with PBS the next day, and then a blocking solution [PBS+2% (w/w) BSA] was added for blocking at room temperature for 2 h. The blocking solution was poured off, and 100 nM gradiently diluted CD19 chimeric antibody or control antibody was added at 50 μl/well. After incubation at 37° C. for 2 h, the plate was washed 3 times with PBS. […] TMB substrate was added at 50 μl/well, and incubated at room temperature for 10 min, and then a stop solution (1.0 N HCl) was added at 50 μl/well. The OD450 nm values were read by an ELISA microplate reader (Multimode Plate Reader, EnSight, purchased from Perkin Elmer).
(§2) In order to detect the species cross-binding activity of the chimeric antibodies, an ELISA plate was coated with commercial murine CD19 (ACROBiosystems, catalog number: 50510-M08H) and monkey CD19 (ACROBiosystems, catalog number: 90051-C08H), respectively, and the ELISA detection was performed according to the method in example 5.1.

Human CD19-his protein [3] = molecular target: T4, Human CD19-his protein (human, UniProt P15391 20-291); test: ELISA, antibody at 10 nM
T4 construct: bought protein; also called human CD19 protein; recombinant human CD19-His; not shown: His tag
T4 sequence (looked up): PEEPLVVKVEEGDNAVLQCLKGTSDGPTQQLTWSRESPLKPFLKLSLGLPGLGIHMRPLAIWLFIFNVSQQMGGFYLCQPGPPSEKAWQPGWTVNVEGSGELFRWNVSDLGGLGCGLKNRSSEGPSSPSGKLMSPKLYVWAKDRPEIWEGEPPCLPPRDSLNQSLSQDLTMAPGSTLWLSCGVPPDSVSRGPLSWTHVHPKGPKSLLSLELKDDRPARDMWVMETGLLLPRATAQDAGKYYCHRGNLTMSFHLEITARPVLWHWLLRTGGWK
Procedure: as §1

Human CD19-his protein [4] = molecular target: T4, Human CD19-his protein; test: ELISA, antibody at 100 nM
Procedure: as §1

Human CD19-his protein [5] = molecular target: T4, Human CD19-his protein; test: ELISA, antibody at 0.01 nM
Procedure: as §1

Human CD19-his protein [6] = molecular target: T4, Human CD19-his protein; test: ELISA, antibody at 0.10 nM
Procedure: as §1

Human CD19-his protein [7] = molecular target: T4, Human CD19-his protein; test: ELISA, antibody at 1.00 nM
Procedure: as §1

Human CD19-his protein [8] = molecular target: T4, Human CD19-his protein; test: ELISA, antibody at 0.001 nM
Procedure: as §1

Human CD19-his protein [9] = molecular target: T4, Human CD19-his protein; test: ELISA, antibody at 0.0001 nM
Procedure: as §1

Human CD19-his protein [10] = molecular target: T4, Human CD19-his protein; test: ELISA on coated human CD19-His
Procedure: as §1

human CD19 on Raji cells = molecular target: T5, human CD19 on Raji cells (human, UniProt P15391 20-556); test: FACS on Raji cells
T5 construct: whole, on cells
T5 sequence (looked up): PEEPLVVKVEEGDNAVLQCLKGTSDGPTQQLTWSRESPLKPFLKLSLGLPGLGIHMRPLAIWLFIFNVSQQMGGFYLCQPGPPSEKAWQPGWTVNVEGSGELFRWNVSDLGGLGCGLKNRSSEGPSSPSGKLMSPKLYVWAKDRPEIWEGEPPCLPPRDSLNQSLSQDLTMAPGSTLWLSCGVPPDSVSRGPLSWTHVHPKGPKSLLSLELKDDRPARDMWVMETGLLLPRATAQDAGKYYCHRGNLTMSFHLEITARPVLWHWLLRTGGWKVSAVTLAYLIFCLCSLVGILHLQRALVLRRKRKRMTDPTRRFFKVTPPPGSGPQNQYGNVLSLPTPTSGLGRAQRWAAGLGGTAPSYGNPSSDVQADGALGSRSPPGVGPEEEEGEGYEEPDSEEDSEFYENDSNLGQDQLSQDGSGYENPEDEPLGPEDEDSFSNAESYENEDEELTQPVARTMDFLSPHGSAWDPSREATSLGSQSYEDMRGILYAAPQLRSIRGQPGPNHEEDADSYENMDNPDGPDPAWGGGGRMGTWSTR

[11] = molecular target: T6, human CD19 on CHO-K1-human CD19 cells (human, UniProt P15391 20-556); test: FACS on CHO-K1-human CD19 cells
T6 construct: whole, on cells; also called CHO-K1-human CD19-2C8
T6 sequence (looked up): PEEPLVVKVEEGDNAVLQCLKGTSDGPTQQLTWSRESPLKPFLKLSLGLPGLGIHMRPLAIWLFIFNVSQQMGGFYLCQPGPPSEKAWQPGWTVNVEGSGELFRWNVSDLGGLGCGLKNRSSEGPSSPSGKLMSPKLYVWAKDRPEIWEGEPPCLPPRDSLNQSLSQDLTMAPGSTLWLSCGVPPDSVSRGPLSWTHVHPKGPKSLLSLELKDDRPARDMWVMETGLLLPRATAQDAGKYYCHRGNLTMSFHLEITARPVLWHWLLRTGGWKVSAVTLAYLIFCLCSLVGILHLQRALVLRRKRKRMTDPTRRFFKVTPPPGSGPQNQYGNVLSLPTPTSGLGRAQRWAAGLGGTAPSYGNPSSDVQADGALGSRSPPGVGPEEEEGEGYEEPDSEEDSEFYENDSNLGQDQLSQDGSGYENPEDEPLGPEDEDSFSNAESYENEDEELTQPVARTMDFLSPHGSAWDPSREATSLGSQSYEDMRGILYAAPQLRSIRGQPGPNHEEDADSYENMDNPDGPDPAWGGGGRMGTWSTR

monkey CD19 protein = molecular target: T7, monkey CD19 protein (monkey); test: ELISA, coated monkey CD19 protein
T7 construct: also called monkey CD19-His protein
Procedure: as §1, §2

[12] = molecular target: T8, monkey CD19 on HEK293T-monkey CD19 cells (monkey); test: FACS on HEK293T-monkey CD19 cells
T8 construct: whole, on cells
Method in brief: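 Antibody binding was read as MFI by flow cytometry and EC50 was taken from curve fitting. Before that, cells at 2×10⁶ cells/ml in PBS with 2% (w/w) BSA were exposed to samples for 2 h on ice and washed. Parental HEK293T cells were tested the same way.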

binding result [1]: no binding (tested: 100 nM)
Kd (Human CD19-his protein [2]): 15.7 nM
koff (Human CD19-his protein [2]): 0.000402 s⁻¹
kon (Human CD19-his protein [2]): 25700 M⁻¹ s⁻¹
B4: F5.2.9 (antibody, human IgG1, V domains shown)
VH: QVTLKESGPGILQPSQTLSLTCSFSGFSLSTFGLGVGWVRQPSGKGLEWLAHIWWDDDKYYNPALKSRVTVSKETSKNQVFFKIANVDTADSATYYCARLSRGLRRDVVYAMDHWGQGTSVTVSS
VL: DIQMTQTTSSLSASLGDRVTISCRASQDISNYLNWYQQKPDGSVKLLISYVSRLQSGVPSRFRGSGSGTDYSLTISNLDQEDIATYFCQQGIAFPYTFGGGTKLDIK
notes: human-murine chimeric antibody, human IgG1 constant

binding result [1]: no binding (tested: 100 nM)
Kd (Human CD19-his protein [2]): 5.98 nM
koff (Human CD19-his protein [2]): 0.00108 s⁻¹
kon (Human CD19-his protein [2]): 181000 M⁻¹ s⁻¹
B5: F5.8.6 (antibody, human IgG1, V domains shown)
VH: QVQLHQPGAELVMPGASVTLSCKASGYTFTSYWMHWVKQRPGQGLEWIGEIDPSDSYTTYDQKFKGKATLTVDKFSSTAYMQFSSLTSEDSAVYYCARLTGNHLDYWGQGTTLTVSS
VL: DIVMTQSHKFMSSSVGDRVSITCKASQDVSPAVAWYQQKPGQSPKLLIYSTSYRNTGVPDRFTGSGSGTDFTFTISSVQAEDLAVYYCQQHYSIPLTFGAGTKLELK
notes: as for B4

Further lines, the binder ahead of its results:

B1: F5.3.6 (antibody, human IgG1, V domains shown)
VH: DVQLQESGPGLVKPSQSQSLTCSVTGYSITSGYYWNWIRQFPGNKLEWMGYISYDGSNNYNPSLKNRISITRDTSKNQFFLKLNSVTTEDTVTYYCARAPLTGDRYWYFDVWGTGTTVTVSS
VL: DIVLTQSPASLAVSLGQRATISCRASQSVSTSSYSYMHWYQQKPGQTPKLLIKYASNLKSGVPARFSGSGSGTDFTLNIHPVEEEDTATYYCQHSWEIPPTFGGGTKLEIK
notes: as for B4
binding result [1]: no binding (tested: 100 nM)
Kd (Human CD19-his protein [2]): 3.49 nM
koff (Human CD19-his protein [2]): 0.000122 s⁻¹
kon (Human CD19-his protein [2]): 35100 M⁻¹ s⁻¹

B2: F3.109.1 (antibody, human IgG1, V domains shown)
VH: EVQLQQSGAELVRPGSSVKMSCKTSGYTFTSYGINWVKQRPGQGLEWIGYIYIGNDYTEFNEKFKGKATLTSDTSSSTAYMQLSSLTSEDSAIYFCARFYSNSDPMDYWGHGTSVTVSS
VL: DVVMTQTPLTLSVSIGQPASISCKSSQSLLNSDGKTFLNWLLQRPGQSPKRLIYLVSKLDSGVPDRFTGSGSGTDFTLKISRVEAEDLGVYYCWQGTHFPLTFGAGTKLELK
notes: human-murine chimeric antibody, human IgG1
binding result (murine CD19 protein): no binding
OD450 (Human CD19-his protein [3]): 2.92
OD450 (Human CD19-his protein [4]): 2.98
OD450 (Human CD19-his protein [5]): 0.24
OD450 (Human CD19-his protein [6]): 1.18
OD450 (Human CD19-his protein [7]): 2.62
OD450 (Human CD19-his protein [8]): 0.07
OD450 (Human CD19-his protein [9]): 0.05
EC50 (read off the curve) (Human CD19-his protein [10]): ~0.2 nM

B3: F3.148.10 (antibody, human IgG1, V domains shown)
VH: EVQLQQSGAELVRPGSSVTMSCKTSGYTFTNYGINWVKQRPGQGLEWIGYIFIGNDYTEYNEKFKGKATLTSDTSSSTAYMQLSSLTSEDSAIYFCTRFYSNYYGMDPWGQGTSVTVSS
VL: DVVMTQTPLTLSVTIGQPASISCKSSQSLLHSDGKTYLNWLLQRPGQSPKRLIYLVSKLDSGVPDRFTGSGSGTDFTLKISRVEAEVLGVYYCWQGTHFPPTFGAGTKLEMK
notes: as for B2
EC50 (human CD19 on Raji cells): 0.28 nM
Maximum mean fluorescence intensity (human CD19 on Raji cells): 31800
EC50 [11]: 0.26 nM
Maximum mean fluorescence intensity [11]: 4700
OD450 at 0.0001 nM (monkey CD19 protein): 0.06 OD450
OD450 at 0.001 nM (monkey CD19 protein): 0.06 OD450
OD450 at 0.01 nM (monkey CD19 protein): 0.07 OD450
OD450 at 0.10 nM (monkey CD19 protein): 0.13 OD450
OD450 at 1.00 nM (monkey CD19 protein): 0.78 OD450
OD450 at 10 nM (monkey CD19 protein): 1.93 OD450
OD450 at 100 nM (monkey CD19 protein): 2.47 OD450
Maximum mean fluorescence intensity [12]: 177
